Molecular target: FZD2-CRD-Fc, recombinant human Frizzled 2 cysteine-rich domain, Fc-tagged (human)
Assay: BLI

Substance: TcdB_(1-1830), truncated TcdB lacking the CROPs region (from UniProt P18177 1-1830) (domain or fragment)
- Kd: 0.017 µM
